From PMC10855146, “Secondary Modification of S100B Influences Anti Amyloid-β Aggregation Activity and Alzheimer’s Disease Pathology” (International Journal of Molecular Sciences, 2024)

B1: Human S100B (natural protein, UniProt P04271 1-92, looked up)
chain: MSELEKAMVALIDVFHQYSGREGDKHKLKKSELKELINNELSHFLEEIKEQEVVDKVMETLDNDGDGECDFQEFMAFVAMVTTACHEFFEHE
notes: S100B, human, recombinant; also called non-oxidized S100B; unmodified S100B; source: apo form eluted on Superdex S75
B2: Oxidized S100B (HClO-treated recombinant human S100B) (natural protein, UniProt P04271 1-92, looked up)
chain: B1 chain
modifications: up to three methionine sulfoxide residues per S100Box monomer (positions not given); no Cys oxidation
notes: S100B, human, recombinant, oxidized with HClO; also called S100Box; S100ox

Key:
[1] = molecular target: the molecule itself; assay: SEC; analytical size-exclusion chromatography, Superdex 75 Tricorn, room temperature, 1 mL/min, 50 mM TrisHCl pH 7.4, imidazole as internal standard
[2] = molecular target: Human recombinant amyloid beta 42 (human, UniProt P05067 672-713); assay: cell-based or functional assay
Sequence of Human recombinant amyloid beta 42 (P05067 672-713): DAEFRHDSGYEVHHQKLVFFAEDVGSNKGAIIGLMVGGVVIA

Binder	stoichiometry N [1]	half-time of ThT-monitored aggregation of monomeric Aβ42 (5 μM) with a 10-fold excess of S100B (0.9 h for Aβ42 alone) [2] [h]	blocking of Aβ42 fibril elongation in seeded ThT aggregation assays (5 μM Aβ42, 4-fold excess of S100Box, 0.04 µM pre-formed fibrils), against S100B [2] [fold against S100B]	half-time of ThT-monitored aggregation of monomeric Aβ42 (5 μM) with a 10-fold excess of S100Box (0.9 h for Aβ42 alone) [2] [h]
B1	2	4.5		
B2	2		~3	8.5
